Source: US20150344570A1 (published 2015)

Molecular target: T1, FcγRIIIa extracellular domain with C-terminal His tag (human, UniProt P08637 17-208)
T1 construct: extracellular domain; also called FcgRIIIa; 3a; not shown: His tag attached to the C terminus
Assay: SPR Biacore, captured antibody, FcγR analyte, relative binding
Protocol: Analysis of interaction between objective antibody and the FcγR was carried out using Biacore T100 (GE Healthcare). HBS-EP+ (GE Healthcare) was used as the running buffer, and the measurement temperature was set to 25° C. Chips produced by immobilizing the antigen peptide by the amine coupling method to a Series S Sencor Chip CM5 (GE Healthcare), or alternatively, chips produced by allowing preliminarily biotinylated antigen peptides to interact with and immobilize onto a Series S Sensor Chip SA (certified) (GE Healthcare) were used. Antibodies of interest were captured onto an antigen peptide-immobilized chip, and allowed to interact to each FcγR diluted with running buffer. To regenerate and repeatedly use the chip, the antibodies captured on the chip were washed off by reacting 10 mM glycine-HCl, pH 1.5.

T1 sequence (P08637 17-208): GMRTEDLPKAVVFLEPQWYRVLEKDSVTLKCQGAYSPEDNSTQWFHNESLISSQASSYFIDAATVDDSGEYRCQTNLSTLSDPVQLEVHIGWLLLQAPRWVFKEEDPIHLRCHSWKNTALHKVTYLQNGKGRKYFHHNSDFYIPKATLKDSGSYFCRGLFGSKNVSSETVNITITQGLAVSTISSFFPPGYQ

| Ho/Con_3a | Binder |
| --- | --- |
| 104 % of HoCon Ab GpH7-B3/GpL16-k0 (=100) | GpH7-B3 variant I336_02A/GpL16-k0 (antibody, human IgG1, kappa, also called Ho Ab I336_02A) heavy: not shown light: DIVMTQSPLSLPVTPGEPASISCQASESLVHSNRNTYLHWYLQKPGQSPQLLIYKVSNRFSGVPDRFSGSGSGTDFTLKISRVEAEDVGVYYCSQNTHVPPTFGQGTKVEIERTVAAPSVFIFPPSDEQLKSGTASVVCLLNNFYPREAKVQWKVDNALQSGNSQESVTEQDSKDSTYSLSSTLTLSKADYEKHKVYACEVTHQGLSSPVTKSFNRGEC |
| 114 % of HoCon Ab GpH7-B3/GpL16-k0 (=100) | GpH7-B3 variant K326_08L/GpL16-k0 (antibody, human IgG1, kappa, also called Ho Ab K326_08L) heavy: not shown light: DIVMTQSPLSLPVTPGEPASISCQASESLVHSNRNTYLHWYLQKPGQSPQLLIYKVSNRFSGVPDRFSGSGSGTDFTLKISRVEAEDVGVYYCSQNTHVPPTFGQGTKVEIERTVAAPSVFIFPPSDEQLKSGTASVVCLLNNFYPREAKVQWKVDNALQSGNSQESVTEQDSKDSTYSLSSTLTLSKADYEKHKVYACEVTHQGLSSPVTKSFNRGEC |
| 137 % of HoCon Ab GpH7-B3/GpL16-k0 (=100) | GpH7-B3 variant K326_03V/GpL16-k0 (antibody, human IgG1, kappa, also called Ho Ab K326_03V) heavy: not shown light: DIVMTQSPLSLPVTPGEPASISCQASESLVHSNRNTYLHWYLQKPGQSPQLLIYKVSNRFSGVPDRFSGSGSGTDFTLKISRVEAEDVGVYYCSQNTHVPPTFGQGTKVEIERTVAAPSVFIFPPSDEQLKSGTASVVCLLNNFYPREAKVQWKVDNALQSGNSQESVTEQDSKDSTYSLSSTLTLSKADYEKHKVYACEVTHQGLSSPVTKSFNRGEC |
| 101 % of HoCon Ab GpH7-B3/GpL16-k0 (=100) | GpH7-B3 variant I336_18N/GpL16-k0 (antibody, human IgG1, kappa, also called Ho Ab I336_18N) heavy: not shown light: DIVMTQSPLSLPVTPGEPASISCQASESLVHSNRNTYLHWYLQKPGQSPQLLIYKVSNRFSGVPDRFSGSGSGTDFTLKISRVEAEDVGVYYCSQNTHVPPTFGQGTKVEIERTVAAPSVFIFPPSDEQLKSGTASVVCLLNNFYPREAKVQWKVDNALQSGNSQESVTEQDSKDSTYSLSSTLTLSKADYEKHKVYACEVTHQGLSSPVTKSFNRGEC |
| 147 % of HoCon Ab GpH7-B3/GpL16-k0 (=100) | GpH7-B3 variant K326_14T/GpL16-k0 (antibody, human IgG1, kappa, also called Ho Ab K326_14T) heavy: not shown light: DIVMTQSPLSLPVTPGEPASISCQASESLVHSNRNTYLHWYLQKPGQSPQLLIYKVSNRFSGVPDRFSGSGSGTDFTLKISRVEAEDVGVYYCSQNTHVPPTFGQGTKVEIERTVAAPSVFIFPPSDEQLKSGTASVVCLLNNFYPREAKVQWKVDNALQSGNSQESVTEQDSKDSTYSLSSTLTLSKADYEKHKVYACEVTHQGLSSPVTKSFNRGEC |
| 130 % of HoCon Ab GpH7-B3/GpL16-k0 (=100) | GpH7-B3 variant I336_10E/GpL16-k0 (antibody, human IgG1, kappa, also called Ho Ab I336_10E) heavy: not shown light: DIVMTQSPLSLPVTPGEPASISCQASESLVHSNRNTYLHWYLQKPGQSPQLLIYKVSNRFSGVPDRFSGSGSGTDFTLKISRVEAEDVGVYYCSQNTHVPPTFGQGTKVEIERTVAAPSVFIFPPSDEQLKSGTASVVCLLNNFYPREAKVQWKVDNALQSGNSQESVTEQDSKDSTYSLSSTLTLSKADYEKHKVYACEVTHQGLSSPVTKSFNRGEC |
| 103 % of HoCon Ab GpH7-B3/GpL16-k0 (=100) | GpH7-B3 variant K326_04F/GpL16-k0 (antibody, human IgG1, kappa, also called Ho Ab K326_04F) heavy: not shown light: DIVMTQSPLSLPVTPGEPASISCQASESLVHSNRNTYLHWYLQKPGQSPQLLIYKVSNRFSGVPDRFSGSGSGTDFTLKISRVEAEDVGVYYCSQNTHVPPTFGQGTKVEIERTVAAPSVFIFPPSDEQLKSGTASVVCLLNNFYPREAKVQWKVDNALQSGNSQESVTEQDSKDSTYSLSSTLTLSKADYEKHKVYACEVTHQGLSSPVTKSFNRGEC |
| 123 % of HoCon Ab GpH7-B3/GpL16-k0 (=100) | GpH7-B3 variant I336_14T/GpL16-k0 (antibody, human IgG1, kappa, also called Ho Ab I336_14T) heavy: not shown light: DIVMTQSPLSLPVTPGEPASISCQASESLVHSNRNTYLHWYLQKPGQSPQLLIYKVSNRFSGVPDRFSGSGSGTDFTLKISRVEAEDVGVYYCSQNTHVPPTFGQGTKVEIERTVAAPSVFIFPPSDEQLKSGTASVVCLLNNFYPREAKVQWKVDNALQSGNSQESVTEQDSKDSTYSLSSTLTLSKADYEKHKVYACEVTHQGLSSPVTKSFNRGEC |
| 119 % of HoCon Ab GpH7-B3/GpL16-k0 (=100) | GpH7-B3 variant I336_13S/GpL16-k0 (antibody, human IgG1, kappa, also called Ho Ab I336_13S) heavy: not shown light: DIVMTQSPLSLPVTPGEPASISCQASESLVHSNRNTYLHWYLQKPGQSPQLLIYKVSNRFSGVPDRFSGSGSGTDFTLKISRVEAEDVGVYYCSQNTHVPPTFGQGTKVEIERTVAAPSVFIFPPSDEQLKSGTASVVCLLNNFYPREAKVQWKVDNALQSGNSQESVTEQDSKDSTYSLSSTLTLSKADYEKHKVYACEVTHQGLSSPVTKSFNRGEC |
| 129 % of HoCon Ab GpH7-B3/GpL16-k0 (=100) | GpH7-B3 variant K326_06M/GpL16-k0 (antibody, human IgG1, kappa, also called Ho Ab K326_06M) heavy: not shown light: DIVMTQSPLSLPVTPGEPASISCQASESLVHSNRNTYLHWYLQKPGQSPQLLIYKVSNRFSGVPDRFSGSGSGTDFTLKISRVEAEDVGVYYCSQNTHVPPTFGQGTKVEIERTVAAPSVFIFPPSDEQLKSGTASVVCLLNNFYPREAKVQWKVDNALQSGNSQESVTEQDSKDSTYSLSSTLTLSKADYEKHKVYACEVTHQGLSSPVTKSFNRGEC |
| 110 % of HoCon Ab GpH7-B3/GpL16-k0 (=100) | GpH7-B3 variant I336_03V/GpL16-k0 (antibody, human IgG1, kappa, also called Ho Ab I336_03V) heavy: not shown light: DIVMTQSPLSLPVTPGEPASISCQASESLVHSNRNTYLHWYLQKPGQSPQLLIYKVSNRFSGVPDRFSGSGSGTDFTLKISRVEAEDVGVYYCSQNTHVPPTFGQGTKVEIERTVAAPSVFIFPPSDEQLKSGTASVVCLLNNFYPREAKVQWKVDNALQSGNSQESVTEQDSKDSTYSLSSTLTLSKADYEKHKVYACEVTHQGLSSPVTKSFNRGEC |
| 157 % of HoCon Ab GpH7-B3/GpL16-k0 (=100) | GpH7-B3 variant K326_10E/GpL16-k0 (antibody, human IgG1, kappa, also called Ho Ab K326_10E) heavy: not shown light: DIVMTQSPLSLPVTPGEPASISCQASESLVHSNRNTYLHWYLQKPGQSPQLLIYKVSNRFSGVPDRFSGSGSGTDFTLKISRVEAEDVGVYYCSQNTHVPPTFGQGTKVEIERTVAAPSVFIFPPSDEQLKSGTASVVCLLNNFYPREAKVQWKVDNALQSGNSQESVTEQDSKDSTYSLSSTLTLSKADYEKHKVYACEVTHQGLSSPVTKSFNRGEC |
| 163 % of HoCon Ab GpH7-B3/GpL16-k0 (=100) | GpH7-B3 variant K326_09D/GpL16-k0 (antibody, human IgG1, kappa, also called Ho Ab K326_09D) heavy: not shown light: DIVMTQSPLSLPVTPGEPASISCQASESLVHSNRNTYLHWYLQKPGQSPQLLIYKVSNRFSGVPDRFSGSGSGTDFTLKISRVEAEDVGVYYCSQNTHVPPTFGQGTKVEIERTVAAPSVFIFPPSDEQLKSGTASVVCLLNNFYPREAKVQWKVDNALQSGNSQESVTEQDSKDSTYSLSSTLTLSKADYEKHKVYACEVTHQGLSSPVTKSFNRGEC |
| 107 % of HoCon Ab GpH7-B3/GpL16-k0 (=100) | GpH7-B3 variant I336_06M/GpL16-k0 (antibody, human IgG1, kappa, also called Ho Ab I336_06M) heavy: not shown light: DIVMTQSPLSLPVTPGEPASISCQASESLVHSNRNTYLHWYLQKPGQSPQLLIYKVSNRFSGVPDRFSGSGSGTDFTLKISRVEAEDVGVYYCSQNTHVPPTFGQGTKVEIERTVAAPSVFIFPPSDEQLKSGTASVVCLLNNFYPREAKVQWKVDNALQSGNSQESVTEQDSKDSTYSLSSTLTLSKADYEKHKVYACEVTHQGLSSPVTKSFNRGEC |
| 111 % of HoCon Ab GpH7-B3/GpL16-k0 (=100) | GpH7-B3 variant I336_09D/GpL16-k0 (antibody, human IgG1, kappa, also called Ho Ab I336_09D) heavy: not shown light: DIVMTQSPLSLPVTPGEPASISCQASESLVHSNRNTYLHWYLQKPGQSPQLLIYKVSNRFSGVPDRFSGSGSGTDFTLKISRVEAEDVGVYYCSQNTHVPPTFGQGTKVEIERTVAAPSVFIFPPSDEQLKSGTASVVCLLNNFYPREAKVQWKVDNALQSGNSQESVTEQDSKDSTYSLSSTLTLSKADYEKHKVYACEVTHQGLSSPVTKSFNRGEC |
| 134 % of HoCon Ab GpH7-B3/GpL16-k0 (=100) | GpH7-B3 variant K326_07I/GpL16-k0 (antibody, human IgG1, kappa, also called Ho Ab K326_07I) heavy: not shown light: DIVMTQSPLSLPVTPGEPASISCQASESLVHSNRNTYLHWYLQKPGQSPQLLIYKVSNRFSGVPDRFSGSGSGTDFTLKISRVEAEDVGVYYCSQNTHVPPTFGQGTKVEIERTVAAPSVFIFPPSDEQLKSGTASVVCLLNNFYPREAKVQWKVDNALQSGNSQESVTEQDSKDSTYSLSSTLTLSKADYEKHKVYACEVTHQGLSSPVTKSFNRGEC |
